Assay results as given in the supplement of paper PMC9732359.
± gives the uncertainty stated by the source.

Experiment: protein stability index of a GFP-peptide fusion (yeast GPS) (PSI 1-4); higher = more stable; sorted into four equal gates, so the index is relative within each strain
How it was run: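 Sequencing reads from sorted gates were used to score each peptide. The library consisted of tiled 17-residue yeast protein peptides fused downstream of GFP on a Cherry-expressing plasmid, pooled and carried in yeast. Mid-log cultures in leucine-free medium were split into four equal gates by GFP/Cherry ratio, and each gate's plasmids were PCR-amplified and Illumina-sequenced. The protein stability index adds up, over all gates, the read frequency multiplied by the gate number.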

## SMQTIAETIILSSAGKN [SRB5]
doa10∆
  protein stability index: 2.09 ± 0.045
pdr5∆
  protein stability index: 2.39 ± 0.048
san1∆
  protein stability index: 1.8 ± 0.055
ubr1∆
  protein stability index: 1.9 ± 0.029

## DIKAPSTFENRNVGKTL [RPS1A]
doa10∆
  protein stability index: 2.95 ± 0.074
pdr5∆
  protein stability index: 2.72 ± 0.06
san1∆
  protein stability index: 3 ± 0.052
ubr1∆
  protein stability index: 3.1 ± 0.057

## RGYWGTNLGQPHSLATK [RPS2]
doa10∆
  protein stability index: 2.68 ± 0.23
pdr5∆
  protein stability index: 3.18 ± 0.16
san1∆
  protein stability index: 3.04 ± 0.1
ubr1∆
  protein stability index: 2.85 ± 0.093

## SLNEDVEEIKLQKEKEL [SMC2]
pdr5∆
  protein stability index: 1.83 ± 0.25

## EGRLYQVEYALESISHA [PRE9]
doa10∆
  protein stability index: 2.09 ± 0.056
pdr5∆
  protein stability index: 2.19 ± 0.068
san1∆
  protein stability index: 1.98 ± 0.086
ubr1∆
  protein stability index: 1.85 ± 0.048

## LVRELYQWRDLIARRDD [RRP6]
doa10∆
  protein stability index: 2.96 ± 0.056
pdr5∆
  protein stability index: 2.77 ± 0.062
san1∆
  protein stability index: 2.65 ± 0.055
ubr1∆
  protein stability index: 2.25 ± 0.043

## NSTDGAKITEIGSTSKR [YIL149C/MLP2]
doa10∆
  protein stability index: 3.02 ± 0.12
pdr5∆
  protein stability index: 2.91 ± 0.086
san1∆
  protein stability index: 3.01 ± 0.074
ubr1∆
  protein stability index: 3.18 ± 0.062

## PMHSIMPNSSLQPFYSQ [DSN1]
doa10∆
  protein stability index: 2.12 ± 0.072
pdr5∆
  protein stability index: 2.65 ± 0.061
san1∆
  protein stability index: 2.37 ± 0.083
ubr1∆
  protein stability index: 2.49 ± 0.048

## HATVVPPEEFSNTIDEL [SRB7]
doa10∆
  protein stability index: 3.19 ± 0.071
pdr5∆
  protein stability index: 3.25 ± 0.09
san1∆
  protein stability index: 2.89 ± 0.1
ubr1∆
  protein stability index: 3.02 ± 0.089

## DEKDYLTNQQPKNLSTP [CSE2]
doa10∆
  protein stability index: 3.04 ± 0.083
pdr5∆
  protein stability index: 2.87 ± 0.081
san1∆
  protein stability index: 3.21 ± 0.059
ubr1∆
  protein stability index: 3.27 ± 0.069

## SEGSGSSLVQKGLETID [RPC53]
doa10∆
  protein stability index: 3.35 ± 0.16
pdr5∆
  protein stability index: 3.14 ± 0.14
ubr1∆
  protein stability index: 3.08 ± 0.063

## CTEAGLLALRERRMQVT [RPT2]
doa10∆
  protein stability index: 2.17 ± 0.092
pdr5∆
  protein stability index: 2.9 ± 0.15
san1∆
  protein stability index: 2.33 ± 0.14
ubr1∆
  protein stability index: 2.7 ± 0.11

## QTKDSVKEIVLPLFYDL [IRR1]
doa10∆
  protein stability index: 2.42 ± 0.06
pdr5∆
  protein stability index: 2.4 ± 0.057
san1∆
  protein stability index: 2.6 ± 0.05
ubr1∆
  protein stability index: 2 ± 0.035

## LNKGKKVTSMTPAPKIS [RPL36A]
pdr5∆
  protein stability index: 2.98 ± 0.14
ubr1∆
  protein stability index: 3.15 ± 0.12

## QDNKKIYVHVRRSTPFS [ESC2]
doa10∆
  protein stability index: 2.34 ± 0.049
pdr5∆
  protein stability index: 2.49 ± 0.049
san1∆
  protein stability index: 2.61 ± 0.049
ubr1∆
  protein stability index: 2.64 ± 0.04

## SPMLSISNLTQEQVQDY [FAS1]
doa10∆
  protein stability index: 2.97 ± 0.058
pdr5∆
  protein stability index: 2.97 ± 0.047
san1∆
  protein stability index: 2.98 ± 0.05
ubr1∆
  protein stability index: 3.09 ± 0.044

## ALNGIDINTVNTNLMNG [GRR1]
doa10∆
  protein stability index: 3.29 ± 0.051
pdr5∆
  protein stability index: 3.2 ± 0.052
san1∆
  protein stability index: 3.08 ± 0.042
ubr1∆
  protein stability index: 3.1 ± 0.045

## KVSKNSTSFKNPRRLEI [YMR153W/NUP53]
doa10∆
  protein stability index: 2.85 ± 0.059
pdr5∆
  protein stability index: 2.87 ± 0.057
san1∆
  protein stability index: 2.88 ± 0.057
ubr1∆
  protein stability index: 2.71 ± 0.032

## EKLKVNMEKEKDRIIDE [YIL149C/MLP2]
doa10∆
  protein stability index: 3.37 ± 0.23
pdr5∆
  protein stability index: 3.05 ± 0.2
san1∆
  protein stability index: 3.39 ± 0.1
ubr1∆
  protein stability index: 2.75 ± 0.14

## EFFSTNWLSIFNDFSNI [REC8]
doa10∆
  protein stability index: 2.83 ± 0.075
pdr5∆
  protein stability index: 2.91 ± 0.067
san1∆
  protein stability index: 2.09 ± 0.098
ubr1∆
  protein stability index: 2.83 ± 0.08

## QMMSKGIGALFTQQELQ [RPC34]
doa10∆
  protein stability index: 3.3 ± 0.11
pdr5∆
  protein stability index: 3.26 ± 0.12
san1∆
  protein stability index: 3.12 ± 0.07
ubr1∆
  protein stability index: 3.34 ± 0.08

## WRVREASTSALLQLIQS [ECM29]
doa10∆
  protein stability index: 1.16 ± 0.13
pdr5∆
  protein stability index: 1.41 ± 0.12
san1∆
  protein stability index: 1.04 ± 0.22

## TFAVILFLIIQCYKIYD [YMR129W/POM152]
doa10∆
  protein stability index: 1.35 ± 0.057
pdr5∆
  protein stability index: 1.22 ± 0.046
san1∆
  protein stability index: 1.19 ± 0.094
ubr1∆
  protein stability index: 1.31 ± 0.053

## LYDNFVSKFYDKINQLS [RPN9]
doa10∆
  protein stability index: 2.78 ± 0.098
pdr5∆
  protein stability index: 2.69 ± 0.077
san1∆
  protein stability index: 1.58 ± 0.15
ubr1∆
  protein stability index: 2.43 ± 0.077

## IAGFDLIGCIDEAKDFI [PUP3]
doa10∆
  protein stability index: 3.17 ± 0.11
pdr5∆
  protein stability index: 3.33 ± 0.13
san1∆
  protein stability index: 3.08 ± 0.073
ubr1∆
  protein stability index: 3.21 ± 0.055

## FRFQGGIIVAVDSRATA [PRE2]
doa10∆
  protein stability index: 1.45 ± 0.063
pdr5∆
  protein stability index: 1.54 ± 0.072
san1∆
  protein stability index: 1.3 ± 0.12
ubr1∆
  protein stability index: 1.62 ± 0.078

## VKKGPVRLPTKVLKIST [RPS20]
doa10∆
  protein stability index: 2.22 ± 0.062
pdr5∆
  protein stability index: 2.22 ± 0.085
san1∆
  protein stability index: 2.54 ± 0.058
ubr1∆
  protein stability index: 2.37 ± 0.064

## MSAKAQNPMRDLKIEKL [RPL11A]
doa10∆
  protein stability index: 3.39 ± 0.16
pdr5∆
  protein stability index: 3.26 ± 0.11
san1∆
  protein stability index: 3.46 ± 0.11
ubr1∆
  protein stability index: 3.61 ± 0.24

## KLKGLMKLNILDERFAS [IRR1]
doa10∆
  protein stability index: 2.29 ± 0.13
pdr5∆
  protein stability index: 2.75 ± 0.083
san1∆
  protein stability index: 2.4 ± 0.16
ubr1∆
  protein stability index: 2.35 ± 0.064

## FIESIVVDFKNKENDNV [SNF12]
doa10∆
  protein stability index: 2.55 ± 0.15
pdr5∆
  protein stability index: 3.04 ± 0.18
ubr1∆
  protein stability index: 3.03 ± 0.27

## LTSQAPQTTQMFQSQSQ [YDL088C/ASM4]
doa10∆
  protein stability index: 3.12 ± 0.11
pdr5∆
  protein stability index: 3.16 ± 0.071
san1∆
  protein stability index: 3.08 ± 0.046
ubr1∆
  protein stability index: 3.06 ± 0.057

## KGGKGLGKGGAKRHRKI [HHF1]
doa10∆
  protein stability index: 3.7 ± 0.22
pdr5∆
  protein stability index: 3.59 ± 0.19
san1∆
  protein stability index: 3.65 ± 0.067
ubr1∆
  protein stability index: 3.59 ± 0.053

## SPVQDWNLLRSLYIFFT [YML103C/NUP188]
doa10∆
  protein stability index: 2.38 ± 0.079
pdr5∆
  protein stability index: 1.71 ± 0.053
san1∆
  protein stability index: 2.25 ± 0.069
ubr1∆
  protein stability index: 1.95 ± 0.042

## QETEGTNRHTLALETVL [SIR3]
doa10∆
  protein stability index: 2.72 ± 0.063
pdr5∆
  protein stability index: 2.57 ± 0.054
san1∆
  protein stability index: 2.53 ± 0.06
ubr1∆
  protein stability index: 2.83 ± 0.041

## NFLDNCLFENDLQRLKP [ITC1]
doa10∆
  protein stability index: 2.61 ± 0.051
pdr5∆
  protein stability index: 3.07 ± 0.063
san1∆
  protein stability index: 2.94 ± 0.048
ubr1∆
  protein stability index: 3.06 ± 0.034

## VGKDTPFTIYDGEAVAK [PRE5]
doa10∆
  protein stability index: 2.7 ± 0.075
pdr5∆
  protein stability index: 3 ± 0.064
san1∆
  protein stability index: 3.14 ± 0.088
ubr1∆
  protein stability index: 3.15 ± 0.051

## RIRKLTGQNFLTSNISS [REC8]
doa10∆
  protein stability index: 1.6 ± 0.056
pdr5∆
  protein stability index: 1.79 ± 0.05
san1∆
  protein stability index: 1.57 ± 0.093
ubr1∆
  protein stability index: 1.53 ± 0.053

## LLAKAVANQTSATFLRI [RPT2]
doa10∆
  protein stability index: 3 ± 0.13
pdr5∆
  protein stability index: 2.27 ± 0.1
san1∆
  protein stability index: 2.3 ± 0.14
ubr1∆
  protein stability index: 2.21 ± 0.073

## ETDNEMNGNGKPGIPRG [SIR3]
doa10∆
  protein stability index: 3.16 ± 0.099
pdr5∆
  protein stability index: 3.11 ± 0.083
san1∆
  protein stability index: 3.39 ± 0.053
ubr1∆
  protein stability index: 2.99 ± 0.1

## AAVETLYQDMAARHRAR [RPL20A]
doa10∆
  protein stability index: 2.96 ± 0.065
pdr5∆
  protein stability index: 3.23 ± 0.059
san1∆
  protein stability index: 2.91 ± 0.051
ubr1∆
  protein stability index: 2.91 ± 0.064

## EFEYDDEPDEQGNPKKR [CYT1]
doa10∆
  protein stability index: 3.21 ± 0.076
pdr5∆
  protein stability index: 3.28 ± 0.073
san1∆
  protein stability index: 3.04 ± 0.07
ubr1∆
  protein stability index: 3.15 ± 0.07

## ATSDNKTTNTTPSFSFG [YJL041W/NSP1]
doa10∆
  protein stability index: 3.13 ± 0.063
pdr5∆
  protein stability index: 3.05 ± 0.076
san1∆
  protein stability index: 3.09 ± 0.032
ubr1∆
  protein stability index: 3.1 ± 0.042

## LLTEELAKSGSTEETTA [TAF14]
doa10∆
  protein stability index: 3.05 ± 0.15
pdr5∆
  protein stability index: 3.05 ± 0.091
san1∆
  protein stability index: 2.82 ± 0.1
ubr1∆
  protein stability index: 2.74 ± 0.087

## LEKFLQGRDTSKLPDPE [SRP72]
doa10∆
  protein stability index: 2.76 ± 0.11
pdr5∆
  protein stability index: 2.2 ± 0.06
san1∆
  protein stability index: 2.38 ± 0.11
ubr1∆
  protein stability index: 2.77 ± 0.051

## TLNSRALSGLYYKNFHN [SNM1]
doa10∆
  protein stability index: 2.17 ± 0.052
pdr5∆
  protein stability index: 2.38 ± 0.06
san1∆
  protein stability index: 1.88 ± 0.063
ubr1∆
  protein stability index: 2 ± 0.042

## HDVGELFWKVKEEEGSF [PRE2]
doa10∆
  protein stability index: 2.71 ± 0.081
pdr5∆
  protein stability index: 2.97 ± 0.08
san1∆
  protein stability index: 2.92 ± 0.064
ubr1∆
  protein stability index: 2.86 ± 0.07

## KKTVAGGAYTVSTAAAA [RPL43A]
doa10∆
  protein stability index: 2.43 ± 0.068
pdr5∆
  protein stability index: 2.46 ± 0.065
san1∆
  protein stability index: 2.15 ± 0.074
ubr1∆
  protein stability index: 2.15 ± 0.05

## LLDDKKLMDEDSVATVI [YJR042W/NUP85]
doa10∆
  protein stability index: 3.06 ± 0.15
pdr5∆
  protein stability index: 2.91 ± 0.21
san1∆
  protein stability index: 2.87 ± 0.14

## VEEAHDFNMKLAINAKT [RPB2]
doa10∆
  protein stability index: 3.09 ± 0.072
pdr5∆
  protein stability index: 3.03 ± 0.085
san1∆
  protein stability index: 3.08 ± 0.064
ubr1∆
  protein stability index: 3.08 ± 0.05

## DKSLDSSNASFNNQGKL [MED1]
doa10∆
  protein stability index: 2.98 ± 0.045
pdr5∆
  protein stability index: 3.07 ± 0.043
san1∆
  protein stability index: 2.68 ± 0.035
ubr1∆
  protein stability index: 2.99 ± 0.045

## FVVPTFGQDVSPMINST [SNM1]
doa10∆
  protein stability index: 2.94 ± 0.084
pdr5∆
  protein stability index: 2.89 ± 0.085
san1∆
  protein stability index: 2.89 ± 0.056
ubr1∆
  protein stability index: 2.84 ± 0.067

## NYGMIAINPGRVAASFS [FAS1]
doa10∆
  protein stability index: 1.72 ± 0.1
pdr5∆
  protein stability index: 1.89 ± 0.09
san1∆
  protein stability index: 1.46 ± 0.076
ubr1∆
  protein stability index: 1.81 ± 0.06

## TTLTIMRILPRETDPLV [RPT4]
doa10∆
  protein stability index: 2.63 ± 0.068
pdr5∆
  protein stability index: 2.62 ± 0.057
san1∆
  protein stability index: 2.73 ± 0.064
ubr1∆
  protein stability index: 2.52 ± 0.039
